From patent US20240141043A1

Experiments:
[1] = molecular target: murine CD19 (mouse) (UniProt P25918); test: flow cytometry of mouse peripheral blood, Day 1 after i.v. injection of 50 ug anti-murine CD19-FITC, no CD19-FITC in master mix (injected antibody only) [CONT'D) D]
[2] = molecular target: murine CD19 (mouse) (UniProt P25918); test: flow cytometry of mouse peripheral blood, Day 5 after i.v. injection of 50 ug anti-murine CD19-FITC, no CD19-FITC in master mix (injected antibody only) [CONT'D) D]
[3] = molecular target: murine CD19 (mouse) (UniProt P25918); test: flow cytometry of mouse peripheral blood, 4hrs after i.v. injection of 50 ug anti-murine CD19-FITC, no CD19-FITC in master mix (injected antibody only) [CONT'D) D]
[4] = molecular target: murine CD19 (mouse) (UniProt P25918); test: flow cytometry of mouse peripheral blood, Day 5 after i.v. injection of 50 ug anti-murine CD19-FITC, CD19-FITC in master mix [CONT'D) D]
[5] = molecular target: murine CD19 (mouse) (UniProt P25918); test: flow cytometry of mouse peripheral blood, Day 1 after i.v. injection of 50 ug anti-murine CD19-FITC, CD19-FITC in master mix [CONT'D) D]
[6] = molecular target: murine CD19 (mouse) (UniProt P25918); test: flow cytometry of mouse peripheral blood, Day 8 after i.v. injection of 50 ug anti-murine CD19-FITC, no CD19-FITC in master mix (injected antibody only) [CONT'D) D]
[7] = molecular target: murine CD19 (mouse) (UniProt P25918); test: flow cytometry of mouse peripheral blood, Day 8 after i.v. injection of 50 ug anti-murine CD19-FITC, CD19-FITC in master mix [CONT'D) D]
[8] = molecular target: murine CD19 (mouse) (UniProt P25918); test: flow cytometry of mouse peripheral blood, 4hrs after i.v. injection of 50 ug anti-murine CD19-FITC, CD19-FITC in master mix [CONT'D) D]

Chain of murine CD19 (mouse) (P25918 19-547): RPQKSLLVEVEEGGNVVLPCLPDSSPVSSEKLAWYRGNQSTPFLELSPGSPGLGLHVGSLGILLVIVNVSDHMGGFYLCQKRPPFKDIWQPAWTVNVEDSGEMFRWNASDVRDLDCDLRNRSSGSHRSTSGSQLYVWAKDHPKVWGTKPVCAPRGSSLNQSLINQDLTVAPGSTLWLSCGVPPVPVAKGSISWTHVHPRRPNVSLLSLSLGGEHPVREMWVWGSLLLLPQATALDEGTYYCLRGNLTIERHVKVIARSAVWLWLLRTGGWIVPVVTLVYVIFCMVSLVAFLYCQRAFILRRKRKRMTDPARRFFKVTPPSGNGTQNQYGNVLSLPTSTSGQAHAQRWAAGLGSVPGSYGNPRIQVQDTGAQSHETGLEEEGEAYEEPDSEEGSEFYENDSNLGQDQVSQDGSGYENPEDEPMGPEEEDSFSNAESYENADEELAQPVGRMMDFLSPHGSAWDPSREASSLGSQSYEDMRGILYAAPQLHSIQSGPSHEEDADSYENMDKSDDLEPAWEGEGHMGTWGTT

anti-murine CD19-FITC antibody (Biolegend; clone 1D3)
CD19+CD20+ gate (share of cells in the gate) [1]: 49.1
CD19+CD20+ gate (share of cells in the gate) [2]: 44
CD19+CD20+ gate (share of cells in the gate) [3]: 52.7
CD19+CD20+ gate (share of cells in the gate) [4]: 43.6
CD19+CD20+ gate (share of cells in the gate) [5]: 52.3
CD19+CD20+ gate (share of cells in the gate) [6]: 38.3
CD19+CD20+ gate (share of cells in the gate) [7]: 36.4
CD19+CD20+ gate (share of cells in the gate) [8]: 53
